Target: MMP13-undigested human type II collagen (UniProt P02458)
Sequence (P02458 182-1241): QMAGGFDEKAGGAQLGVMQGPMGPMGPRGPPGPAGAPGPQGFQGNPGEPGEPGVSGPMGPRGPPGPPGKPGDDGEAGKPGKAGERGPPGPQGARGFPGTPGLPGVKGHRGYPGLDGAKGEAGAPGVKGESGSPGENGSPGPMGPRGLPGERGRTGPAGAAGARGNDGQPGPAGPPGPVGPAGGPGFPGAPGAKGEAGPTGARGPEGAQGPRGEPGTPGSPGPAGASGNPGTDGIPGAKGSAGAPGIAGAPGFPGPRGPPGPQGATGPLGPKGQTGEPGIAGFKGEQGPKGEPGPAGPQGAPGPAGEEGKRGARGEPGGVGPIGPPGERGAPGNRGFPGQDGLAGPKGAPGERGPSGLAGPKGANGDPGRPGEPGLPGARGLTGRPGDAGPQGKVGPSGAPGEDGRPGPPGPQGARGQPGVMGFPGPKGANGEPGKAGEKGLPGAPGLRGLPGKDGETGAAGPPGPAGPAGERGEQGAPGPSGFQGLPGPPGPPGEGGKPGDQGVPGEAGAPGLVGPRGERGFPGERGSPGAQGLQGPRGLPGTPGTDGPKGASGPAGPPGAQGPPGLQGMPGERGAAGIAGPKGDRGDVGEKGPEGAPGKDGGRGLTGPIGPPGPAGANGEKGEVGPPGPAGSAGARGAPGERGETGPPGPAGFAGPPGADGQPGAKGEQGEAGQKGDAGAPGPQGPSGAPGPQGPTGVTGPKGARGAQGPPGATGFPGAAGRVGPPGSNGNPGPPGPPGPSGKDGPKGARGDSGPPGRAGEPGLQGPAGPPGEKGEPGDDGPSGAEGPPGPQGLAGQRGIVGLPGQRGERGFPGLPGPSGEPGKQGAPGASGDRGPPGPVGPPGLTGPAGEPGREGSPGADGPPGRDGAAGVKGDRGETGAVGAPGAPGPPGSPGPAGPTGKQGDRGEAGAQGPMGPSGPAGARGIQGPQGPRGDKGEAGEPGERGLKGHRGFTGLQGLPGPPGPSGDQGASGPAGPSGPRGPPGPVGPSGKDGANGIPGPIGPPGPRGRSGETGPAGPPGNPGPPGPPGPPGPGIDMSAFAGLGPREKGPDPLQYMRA

In the case of activated human MMP13, the “amount of the collagen neoepitope in the enzyme-reaction buffer (sandwich ELISA of Example 4)” value was “the measurements of the neoepitope increased in a manner dependent on the dose of MMP13 added”.

— patent US20120237948
